The nature of this series: yeast display, Sf9 membrane polyspecificity reagent, FACS + sequencing; frameworks hold sequencing errors. In a few lines:
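Sorting gates, low and high (top ~1%), were placed on anti-HA fluorescence to track expression and on streptavidin fluorescence to track reagent binding. A clone's polyreactivity label is taken from the gate it came out of. The reagent was 10% biotinylated, detergent-solubilized Sf9 membrane, applied for 1 hour at 4 °C to galactose-induced yeast display cells.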
For “QVQLVESGGGLVQAGGSLRLSCAASGSIFDVNAMGWYRQAPGKERELVAAISQRGTRTYYADSVKGRFTISRDYAKNTVYLQMNSLTPEDTAVYYCNRGGWRQYDSWGQGTQVTVSS”, the “polyreactivity (PSR sort gate)” value was “high polyreactivity”.
The same measure for “QVQLVESGGGLVQAGGSLRLSCAASGRTFTEYAMGWYRQAHGKERELVARISIGDSTYYADSVKGRFTISRDNAKNTVYLQMNSLKPEDTAVYYCNAEYSRSYRYDEGYWGQGTKVTVSS”: “low polyreactivity”; for “QVQLVESGGGLVQAGGSLRLSCAASGGTLQGNAMGWYRPAPGKERELVAAISSRGGRTYYADSVKGRFTSSRDNAKNTVYLQMNSLKPEDTAVYYCNAEYPVYFEGYPYYWDYWGDSWGQGTQVTVSS”: “high polyreactivity”; for “QVQHVESGGGLVQAGGSLRLSCAASGSIFRYYAMGWYRQAPGKERELVAASTSGGSTSYADSVKGRFTISRDNAKNTVYLQMNSLKPEDTAVYYCAKRSRHNKYYYWGQGTQVTVSS”: “high polyreactivity”.
The value for “QVQLVESGGGLVQAGGSLRLSCAASGRIFVYYAMGWYRQAPGKERELVASISYSGASTYYADSVKGRFTISRDNAKNTVYLQMYSLKPEDTAVYYCNTDGDDFFHVIYDYWGQGTQVTVSS” was “low polyreactivity”.
The value for “QVQLVESGGGLVQAGGSLRLSCAASGSIFPQNGMGWYRQAPGKERELVAAISSNGDNTYADSVKGRFTISRDNAKNTVYLQMNSLKPEDTAVYYCAAERRRTAGGVYHPWEDYWGQGTQVTVSS” was “low polyreactivity”.
As to “QVQLVESGGGLVQAGGSLRLSCAASGRIFSYYAMGWYRQAPGKERELVAAITWSGGRTYYADSVKGRFTISRDNAKNTVYLQMNSLKPEDTAVYYCAAQGSRWWGFDYWGQGTQVTVSS”, the “polyreactivity (PSR sort gate)” value is reported as “high polyreactivity”.
Consider “QFQLVDSGGGLVQPGGSLRLRCAASGLTFQQYAMGWYRQAPGKERELVAAITSDGASTNYADSVKGRFTISRDNAKNTVYLQMNSLKPEDTAVYYCAARRRSRQYRYDYWGQGTQVTVSS”, for which the “polyreactivity (PSR sort gate)” value is listed as “high polyreactivity”.
The same measure for “QVQLVESGGGLVQAGGSLRLSCAASGFIFHHYAMGWYRPAPGKERELVAAISKSGGSTYYADSVKGRFTISRDNAKNTVYLQMNSLKPEDTAVYYCAAYKRSGLKYGHWGQGTQVTVSS”: “high polyreactivity”.
On to “QVQLVESGGGLVQAGGSLRLSSAASGRTFRYNAMGWYRQAPGKERELVAAISWSGTSTYYADSVKGRFTISRDNAKNTVYLQMNSLKPEDTAVYYCAARGLYDYGYWGQGTQVTVSS”, for which the “polyreactivity (PSR sort gate)” value is given as “high polyreactivity”.
As to “QVQLVESGGGLVQAGGSLRLSCAASGYIYLPYAMGWYRQAPGKERELVAAIRWSGGSTYYADSVKGRFTISRDNAKNTVYLQMNSLKPEDTAVYYCAAYYVARDRRYPKAYSYEYWGQGTQVTVSS”, the “polyreactivity (PSR sort gate)” value is “high polyreactivity”.
Take “HVQLVESGGGLVQAGGRLRLSCAPSGSIFGLYGMGWYRQAPGKEREFVAAISQSGGRTYYADSVKGRFTISRDNAQNTVYLQMNSLKPEDTAVYYCATYVQRRGQYGIYDYWGQGTQVTVSS”: the “polyreactivity (PSR sort gate)” value is recorded as “high polyreactivity”.
Turning to “QVQLVESGGGLVQAGGSLRLSCAASGSIFSTYAMGWYRQAPGKERELVAAISGSGGRTYYADSVKGRFTISRDNAKNTVYLQMNSLKPEDTAVYYCAADGGSVKTPGYYYWGQGTQVTVSS”, the “polyreactivity (PSR sort gate)” value is “high polyreactivity”.
With “QVQLVESGGGLVQAGGSLRLSCAASGSIFGLYAMGWYRQAPGKERDLVAVITYYVGTTYYADSVKGRFTISRDTAKNTVYLQMHSLKPEDTAVYYCAADLYWYYPWSAYYGEYDYWGQGTQVTVSS”, the “polyreactivity (PSR sort gate)” value is “low polyreactivity”.
As to “QVQLVESGGGLVQAGGSLRLSCAASGIIFGYYAMGWYRQAPGKERELVAAISRGGNTNYADSVKGRFTISRDNAKNTVYLQMNSLKPEDTAVYYCAADFWSRIKYFYAVDVDYWGQGTQVTVSS”, the “polyreactivity (PSR sort gate)” value is recorded as “low polyreactivity”.
As to “QVQIVESGGGLVQAGGSLRVSCAASGSILSKYDMGWYRPAPGKERELVAVISSRGGSTYYADSVKGRFTISRDNAKNTVYLQMNSLKPEDTAVYYCNARSGRGYGYWGQGTQVTVSS”, the “polyreactivity (PSR sort gate)” value is recorded as “high polyreactivity”.
The value for “QVQLVESGGGLVQAGGSLRLSCAASGRTFFSYTMGWSRQAPGKERELVAAISDSDGRTYYADSVKGRFTISRDNAKNTVYLQMNSLKPEDTAVYYCAAVPDKDWSRVRRYLFEDIYWGQGTQVTVSS” was “low polyreactivity”; that for “QVQLVESGGGLVQAGGSLRLSCAASGFNFGCYCMGWYIQAPGKERELVAAITWSGVRTYYADSVKGRFTISRDNAKNTVYLQMNSLKPEDTAVYYCAASGEGGYLENNEFDYWGQGTQVTVSS” was “low polyreactivity”; that for “QVQLVESGGGLVQAGGSLRLICAASGIIFAYNAMGWYRQAPGKESELVAAISVIGGTTYYADSVKGRFTMSRDNAKNTVYLRMNSLKPEDSAVYYCAVDSVQYGGGYERLHELYYWGQGTQVTVSS” was “low polyreactivity”.
On to “QVQLVESGGGLVQAGGSLRLSCAASGRIFTRYAMGSYRQAPGKETEFVAAISGNGGSTYADSVKGRFTISRDNAKNTVYLQMNSLKPEDTAVYYCAAVPYGYGLASDSIFDYWGQGTQVTVSS”, for which the “polyreactivity (PSR sort gate)” value is on record as “high polyreactivity”.
In the case of “QVQLVESGGGLVQAGGSLRLSCAASGYTFNRYAMGWYRQAPGKERELVAAISKRGGSTNYADSVKGRFTISRDNAKNTVYLQMNSLKPEDTAVYYCAKRWRSYSRGGDYWGQGTQVTVSS”, the “polyreactivity (PSR sort gate)” value was “high polyreactivity”.
The same measure for “QVQLVESGGGLVQAGGSIRLSCAASGSIFGGYDMGWYRQAPGKERELVSAIDADAGSTYYADSVKGRFTISRDNAKNTVYLQMYSLKPEDTSDDYCGAESYPYFITLYVFTLYGYWGQGTQVTVAS”: “low polyreactivity”; for “QVQLLESGGGLVQAGGSLRLSCAASGLIFKYYAMGWYRQAPGKERELVAVITSSGGSTYYADSVKGRFTISRDNANNTVYLQMNSLKPEDTAVYYCAARRVRWPYDYWGQGTQVTVSS”: “high polyreactivity”; for “QVQLVESGGGLVQAGGSLRLSCAASGSTFGQYALGWYRQAPGKERELVATISSGSTYYADSVKGRFTISRDNAKNTVYLQMNSLKPEDTAVYYCAARRIHTTSSRGYYWGQGSQVTVSS”: “high polyreactivity”.
The same measure for “QVQRVESGGGLVQAGGSLRLSCAASGSIYRWNARGWSRQATGKERELVAVINSSGGSTYYADSVKGRFTISRDNAKNTVYLQMNSLKPEDTAVYYCAADLFLECSSQYAPNWWPDGWNTYRLLGGYWGQGTQVTVSS”: “low polyreactivity”; for “QVHLVESGGGLVQAGGSLRLSCAASGSTIRYYAMGWYRQAPGKERELVAAITKSGGSTYYADSVKGRFTISRDNAKNTVYLQMNSLKPEDTAVYYCAAFRRWYYPALSEHDYWGQGTQGTVSS”: “low polyreactivity”.
For the sequence “QVQLVESGGGLVQAGGSLRLSCAASGRIFTRNAMGWYRQAPGKERELVAAIRWSGDSTYYADSVKGRFTISRDNAKNTVYLQMNSLKPEDTAVYYCAADRQRSHRVGTKGHRVGYWGQGTQVTVSS”, the “polyreactivity (PSR sort gate)” value is listed as “high polyreactivity”.
As to “QVQLVESGGGLVQAGGSLRLSSAASGRIFVVNAMGWYRQAPGKERELVAAISKSGARTYYADSVKGRFTISRDNAKNTVYLQMNSLKPEDTAVYYCAAESKGYSQSVFPYDYWGQGTQVTVSS”, the “polyreactivity (PSR sort gate)” value is listed as “high polyreactivity”.
The same measure for “QVQLVESGGGLVQAGGSLRLSCAASGSTFAINAMGWYRQAPGKERELVAAMSSSGSTNYADSGNGRFTISRDNAKNTVYLQMNSLKPEDTAVYYCAADRVWGTPQAYVPSQFDYWGQGTQVTVSS”: “low polyreactivity”; for “QVQLVESGGGLVQAGGSLRLSFAASGFIFGLNAKGWYRQAPAKERELVAAIRWRGDTTYYADSVKGRFTISRDNAKNTVYLQMKSLKPEDTAVYSCNAVVVPSRYDYWGQGTQVTVSS”: “low polyreactivity”; for “QVQLVESGGGLVQAGGSLRLSCAASGFTFRYYTMVWYRQAPGKERELVAAITSSGGNTYYADSVKGRFTISRDNAKNTVYLQMNSLKPEDTAVYYCAADAYPQYNGWSWMDYWGQGTQVTVSS”: “low polyreactivity”.
Consider “QVQVVESGGALVQEGGSLRISCAASGSIFAIYVLGWSRQAPGKERELVAAITGSGGSTYYADSVKGRFTISRDNAKITVYVQMNSQKPEDTAVYYCAARVLRVRTLTTTWGQGTQVTVSS”, for which the “polyreactivity (PSR sort gate)” value is “high polyreactivity”.
For the sequence “QVQLVESGGGLVQAGGSLRLSCADSGNTFYANAMGWYRQAPGKEREFVASITRSGGSTYYADSVKGRFTISRDNAKNTVYLQMNSLKPEVTAVYYCAADSWFKYDYWGQGTQVTVSS”, the “polyreactivity (PSR sort gate)” value is reported as “low polyreactivity”.
For “QVQLVESGGGLVQAGGSLRLSCAASVLIIGYNSMGWYRQAPGTERELVASIRYSGGTTYYADSVKGRFTISRDNEKNTVNLQMNSVKPEDTAVYFCATRVTYRRRFDYWGQGTQVTVSS”, the “polyreactivity (PSR sort gate)” value is reported as “high polyreactivity”.
As for “QVQLVESGGGLVQAGGSLRLICAASGRIFRGYVMGWYRQAPGKERELVASIDRSGASTYYADSVKGRFTISRDNAKNTVYLQMNSLKPEDTAVYYCNALVYLRTSRYYYWGQGTQVTVSS”, the “polyreactivity (PSR sort gate)” value is given as “high polyreactivity”.
On to “QVQLVESGGGLVQAGGSLRLSCAASGRTFLYYAMGWFRQAPGKERELVAAISASGGSTYYADSVKGRFTISRDNAKNTVYLQMNSLKPEETAVYSCARYTGWGSRYDYWGQGTQVTVSS”, for which the “polyreactivity (PSR sort gate)” value was “high polyreactivity”.
On to “QVQLVESGGGLVQAGGILSLSCAASGRIFPDNTMGWYRQAPGKQRELVAVITYSGGSTYYADSVKGRFTISRDNAKNTVYLQMNSLNPEDTAVYYCAARDFYIWFAEVDYWGQGTLVTVSS”, for which the “polyreactivity (PSR sort gate)” value is “low polyreactivity”.
The same measure for “QVQLVESGGGLVQAGGSLRLSCAASGFTLLGYAMGWYRQAPGKERELVAAISRGGNTYYADSVKGRFTISRDNAKNTVYLQMNSLKPEDTAVYNCAAQTYSTGYVTRFNYWGQGTQVTVSS”: “high polyreactivity”; for “QVQLVESGGGLVQAGGSLRLSCAASGRTFYFNSMGWYRQAPGKERELVASISYGSNTNYADSVKGRFTISRDNAKNTVYLQMNSLKPEDTAVYYCAVRWVYRTYSWGARYGRYDYWGQGTQVTVSS”: “high polyreactivity”; for “QVQLVESGGGLVQAGGSLRLSCAASGRTFRKYTMGWYRQAPGKERELVAAITLSGGSTYYADSVKGRFTISRDNAKNTVYLQMNSLKPEDTAVYYCAARYNRGAFDYWGQGTQVTVSS”: “high polyreactivity”.

The values above are taken from the nanobody polyreactivity screen of Harvey et al. (2022).
